B1: F1 (antibody, V domains shown)
VH: EVQLLESGGGVVQPGRSLRLSCAASGFTFSSYGMHWVRQAPGKGLEWVAVISYDGSNKYYADSVKGRFTISRDNSKNTLYLQMNSLRAEDTAVYYCARPRAYYGAYGSSFDYWGQGTQVTVSS
VL: EIVMTQSPSSVSASVGDRVAITCRASQGISSWLAWYQQKPGKAPKLLIYAASSLQSGVPSRFSGSGSGTDFTLTISSLQPEDFATYYCQQSYSTPLTFGGGTKVDIK
notes: also called clone F1; anti-FOLR1 antibody F1
B2: F40 (antibody, V domains shown)
VH: B1 VH with G33A, T69I, L79V, R100T, A101Y, Y102V, Y103F, G104T, A105Y, Y106T
VL: DIQVTQSPSSLSASLGDTVSITCRASRGLTDSVAWYQQKPGQAPKLLIYAASTLQSGVPSRFGGSGSGSYFTLTITSLQPEDVATYYCQNYKSAPWTFGQGTKVEIK
notes: also called clone F40; anti-FOLR1 antibody F40
B3: F8 (antibody, V domains shown)
VH: B1 VH with P14H
VL: B1 VL
notes: also called clone F8; anti-FOLR1 antibody F8
B4: F138 (antibody, V domains shown)
VH: B1 VH with R72T, D73H
VL: B1 VL
notes: also called clone F138; anti-FOLR1 antibody F138
B5: F48 (antibody, V domains shown)
VH: B1 VH with Q82H
VL: B1 VL
notes: also called clone F48; anti-FOLR1 antibody F48
B6: F26 (antibody, V domains shown)
VH: B1 VH with P14R, Q82P
VL: B1 VL
notes: also called clone F26; anti-FOLR1 antibody F26
B7: F100 (antibody, V domains shown)
VH: B1 VH with D73P
VL: B1 VL
notes: also called clone F100; anti-FOLR1 antibody F100
B8: F131 (antibody, V domains shown)
VH: B1 VH with D73A
VL: B1 VL
notes: also called clone F131; F131 mAb
B9: F123 (antibody, V domains shown)
VH: B1 VH with G15E, D73A
VL: B1 VL
notes: also called clone F123; anti-FOLR1 antibody F123
B10: F112 (antibody, V domains shown)
VH: B1 VH with D73H
VL: B1 VL
notes: also called clone F112; anti-FOLR1 antibody F112

Substitutions are numbered along the chain they refer to.

T1 sequence (A0A2K5U044 entry or part of it): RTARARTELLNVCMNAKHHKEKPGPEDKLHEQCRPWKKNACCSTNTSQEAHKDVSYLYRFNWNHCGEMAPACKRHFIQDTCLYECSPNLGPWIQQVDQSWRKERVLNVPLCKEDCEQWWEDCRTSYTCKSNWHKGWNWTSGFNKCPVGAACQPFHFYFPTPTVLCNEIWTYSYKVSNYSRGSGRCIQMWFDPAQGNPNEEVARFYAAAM
T2 sequence (P15328 25-233 limits assumed): as the sequence (A0A2K5U044 entry or part of it) above, with T2I, R4W, K37R, P146A, Y171H counted along it

The first assay addresses T1, Cynomolgus/Rhesus macaque FOLR1 Protein, His Tag (ACRO, F01-C52H8) (cynomolgus, UniProt A0A2K5U044 25-233).
T1 construct: also called cynomolgus FOLR1 protein; not shown: His tag
In words: ELISA, supernatant diluted 25x.
As to B1, the OD450 came to 0.994.
Same read-out and setting: with B2 the figure was 0.924.
The same measure, in the same setting: with B3 the figure was 1.06; with B4, 1.17; with B5, 0.908.
Still for that read-out and setting: the value for B6 was 1.02; that for B7 was 0.875.
In turn, B8 had an OD450 of 1.09.
As to B9, the OD450 was 1.07.
The molecule B10 returned an OD450 of 0.933.

Another assay concerns the target T2, Human FOLR1 Protein His Tag (ACRO-FO1-H52H1) (human, UniProt P15328 25-233).
T2 construct: not shown: His tag
Put plainly: ELISA, supernatant diluted 25x. On the technique in general: In an ELISA, binding on a coated surface is turned into a signal by an enzyme label.
In the case of B1, the OD450 amounted to 1.18.
Still for that read-out and setting: with B2 the figure was 0.163; with B3, 1.31.
The molecule B4 registered an OD450 of 0.827.
In the case of B5, the OD450 is 1.29.
For the molecule B6, the OD450 turned out to be 1.48.
Regarding B7, the OD450 amounted to 1.18.
The molecule B8 displayed an OD450 of 1.38.
The molecule B9 yielded an OD450 of 1.33.
Regarding B10, the OD450 is 1.17.

The next assay has as its target T2, Human FOLR1 Protein His Tag …. Put plainly: ELISA, HEK293 supernatant on coated antigen.
Molecule B1 had an OD450 of 2.43.
On the same count and under the same terms, the value for B2 was 2.39.
On the same count and under the same terms, the value for B3 was 2.45.
The molecule B4 showed an OD450 of 2.41.
Consider B5, for which the OD450 came to 2.54.
As for B6, the OD450 was found to be 2.43.
The same measure, in the same setting: with B7 the figure was 2.3; with B8, 2.35; with B9, 2.32.
B10 registered an OD450 of 2.35.

Another assay deals with T1, Cynomolgus/Rhesus macaque FOLR1 …. Put plainly: ELISA, supernatant diluted 5x.
For B1, the OD450 was 1.26.
With B2, the OD450 was determined as 1.11.
Turning to B3, the OD450 was 1.28.
The molecule B4 displayed an OD450 of 1.14.
In the case of B5, the OD450 came out at 1.04.
Same read-out and setting: with B6 the figure was 1.21; with B7, 1.03.
Turning to B8, the OD450 came out at 1.27.
Same read-out and setting: with B9 the figure was 1.3; with B10, 1.21.

For another assay, the target named is T2, Human FOLR1 Protein His Tag …. Put plainly: ELISA, supernatant diluted 5x.
For B1, the OD450 turned out to be 1.45.
B2: the OD450 turned out to be 0.382.
The same measure, in the same setting: with B3 the figure was 1.65.
Still for that read-out and setting: the value for B4 was 1.69; that for B5 was 1.59; that for B6 was 1.51.
The same measure, in the same setting: with B7 the figure was 1.53; with B8, 1.52.
Regarding B9, the OD450 came out at 1.47.
Still for that read-out and setting: the value for B10 was 1.42.

Another assay has as its target T1, Cynomolgus/Rhesus macaque FOLR1 …. In words: ELISA, supernatant diluted 1x.
B1: the OD450 turned out to be 1.38.
The same measure, in the same setting: the value for B2 was 1.35.
Turning to B3, the OD450 was 0.896.
Same read-out and setting: the value for B4 was 1.14; that for B5 was 1.15; that for B6 was 1.24.
On to B7, for which the OD450 amounted to 1.16.
Molecule B8 displayed an OD450 of 1.2.
The same measure, in the same setting: with B9 the figure was 1.36; with B10, 1.26.

The target of the next assay is T2, Human FOLR1 Protein His Tag …. In words: ELISA, supernatant diluted 1x.
Regarding B1, the OD450 amounted to 1.66.
Take B2: the OD450 turned out to be 0.811.
Still for that read-out and setting: the value for B3 was 1.67; that for B4 was 1.64; that for B5 was 1.56.
Still for that read-out and setting: with B6 the figure was 1.64.
Molecule B7 yielded an OD450 of 1.61.
For B8, the OD450 amounted to 1.61.
Molecule B9 came in with an OD450 of 1.72.
Regarding B10, the OD450 stood at 1.56.

These data come from patent US20240207429A1 (PROFOUNDBIO US, published 2024).
